According to patent publication US20160272683A1 (Novo Nordisk, published 2016):
Numbered stars: 1 amine (or outer) side, 2 acyl side, 3 side chain; on linkers, the order of the positions; unused ones are H or OH. * marks the point of attachment. C20 diacid = O=C(O)CCCCCCCCCCCCCCCCCCC(=O)*; γGlu = O=C(O)[C@H](CCC(=O)[*:2])N[*:1]

T1: human amylin receptor (human calcitonin receptor + human RAMP3) (human) (UniProt P30988)
T1 sequence (looked up) 1: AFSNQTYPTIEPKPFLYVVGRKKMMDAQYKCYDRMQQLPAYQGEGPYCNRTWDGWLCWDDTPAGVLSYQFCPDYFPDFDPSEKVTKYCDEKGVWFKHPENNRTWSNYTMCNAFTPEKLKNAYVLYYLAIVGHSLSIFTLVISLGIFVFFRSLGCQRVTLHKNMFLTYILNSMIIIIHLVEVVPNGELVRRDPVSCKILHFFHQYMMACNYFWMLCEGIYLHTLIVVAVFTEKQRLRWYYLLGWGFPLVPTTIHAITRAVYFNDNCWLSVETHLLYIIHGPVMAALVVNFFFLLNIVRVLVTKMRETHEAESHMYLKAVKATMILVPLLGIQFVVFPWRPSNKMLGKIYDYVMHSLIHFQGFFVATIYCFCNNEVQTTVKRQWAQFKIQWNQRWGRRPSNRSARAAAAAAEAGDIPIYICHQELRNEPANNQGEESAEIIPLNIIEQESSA
T1 sequence (looked up) 2: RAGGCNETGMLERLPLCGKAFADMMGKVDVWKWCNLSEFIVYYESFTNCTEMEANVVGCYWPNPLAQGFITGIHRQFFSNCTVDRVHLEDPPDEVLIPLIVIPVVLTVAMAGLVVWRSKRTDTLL

B1: [N-terminal(C20 diacid-gGlu), des1, 4G, 15Q, 21Q, 23Y, 25H, 30S, 31G, 32T, 33Y]mimylin (peptide)
peptide: {C20 diacid-γGlu}-ASGLSTAALGRLSQELHELQTYPHTETGSGTY-NH2
SMILES: CC(C)C[C@H](NC(=O)CNC(=O)[C@H](CO)NC(=O)[C@H](C)NC(=O)CC[C@H](NC(=O)CCCCCCCCCCCCCCCCCCC(=O)O)C(=O)O)C(=O)N[C@@H](CO)C(=O)N[C@H](C(=O)N[C@@H](C)C(=O)N[C@@H](C)C(=O)N[C@@H](CC(C)C)C(=O)NCC(=O)N[C@@H](CCCNC(=N)N)C(=O)N[C@@H](CC(C)C)C(=O)N[C@@H](CO)C(=O)N[C@@H](CCC(N)=O)C(=O)N[C@@H](CCC(=O)O)C(=O)N[C@@H](CC(C)C)C(=O)N[C@@H](Cc1c[nH]cn1)C(=O)N[C@@H](CCC(=O)O)C(=O)N[C@@H](CC(C)C)C(=O)N[C@@H](CCC(N)=O)C(=O)N[C@H](C(=O)N[C@@H](Cc1ccc(O)cc1)C(=O)N1CCC[C@H]1C(=O)N[C@@H](Cc1c[nH]cn1)C(=O)N[C@H](C(=O)N[C@@H](CCC(=O)O)C(=O)N[C@H](C(=O)NCC(=O)N[C@@H](CO)C(=O)NCC(=O)N[C@H](C(=O)N[C@@H](Cc1ccc(O)cc1)C(N)=O)[C@@H](C)O)[C@@H](C)O)[C@@H](C)O)[C@@H](C)O)[C@@H](C)O
B2: [N-terminal(C20 diacid-gGlu), des1, 4Q, 9V, 15Q, 16R, 19R, 21Q, 23Y, 27Q, 30S, 31Q, 32T, 33Y]mimylin (peptide)
peptide: {C20 diacid-γGlu}-ASQLSTAVLGRLSQRLHRLQTYPRTQTGSQTY-NH2
SMILES: CC(C)C[C@H](NC(=O)[C@H](CCCNC(=N)N)NC(=O)CNC(=O)[C@H](CC(C)C)NC(=O)[C@@H](NC(=O)[C@H](C)NC(=O)[C@@H](NC(=O)[C@H](CO)NC(=O)[C@H](CC(C)C)NC(=O)[C@H](CCC(N)=O)NC(=O)[C@H](CO)NC(=O)[C@H](C)NC(=O)CC[C@H](NC(=O)CCCCCCCCCCCCCCCCCCC(=O)O)C(=O)O)[C@@H](C)O)C(C)C)C(=O)N[C@@H](CO)C(=O)N[C@@H](CCC(N)=O)C(=O)N[C@@H](CCCNC(=N)N)C(=O)N[C@@H](CC(C)C)C(=O)N[C@@H](Cc1c[nH]cn1)C(=O)N[C@@H](CCCNC(=N)N)C(=O)N[C@@H](CC(C)C)C(=O)N[C@@H](CCC(N)=O)C(=O)N[C@H](C(=O)N[C@@H](Cc1ccc(O)cc1)C(=O)N1CCC[C@H]1C(=O)N[C@@H](CCCNC(=N)N)C(=O)N[C@H](C(=O)N[C@@H](CCC(N)=O)C(=O)N[C@H](C(=O)NCC(=O)N[C@@H](CO)C(=O)N[C@@H](CCC(N)=O)C(=O)N[C@H](C(=O)N[C@@H](Cc1ccc(O)cc1)C(N)=O)[C@@H](C)O)[C@@H](C)O)[C@@H](C)O)[C@@H](C)O
B3: [N-terminal(C20 diacid-gGlu), des1, 23Y, 30S, 31G]mimylin (peptide)
peptide: {C20 diacid-γGlu}-ASELSTAALGRLSAELHELATYPRTETGSGSP-NH2
SMILES: CC(C)C[C@H](NC(=O)[C@H](C)NC(=O)[C@H](C)NC(=O)[C@@H](NC(=O)[C@H](CO)NC(=O)[C@H](CC(C)C)NC(=O)[C@H](CCC(=O)O)NC(=O)[C@H](CO)NC(=O)[C@H](C)NC(=O)CC[C@H](NC(=O)CCCCCCCCCCCCCCCCCCC(=O)O)C(=O)O)[C@@H](C)O)C(=O)NCC(=O)N[C@@H](CCCNC(=N)N)C(=O)N[C@@H](CC(C)C)C(=O)N[C@@H](CO)C(=O)N[C@@H](C)C(=O)N[C@@H](CCC(=O)O)C(=O)N[C@@H](CC(C)C)C(=O)N[C@@H](Cc1c[nH]cn1)C(=O)N[C@@H](CCC(=O)O)C(=O)N[C@@H](CC(C)C)C(=O)N[C@@H](C)C(=O)N[C@H](C(=O)N[C@@H](Cc1ccc(O)cc1)C(=O)N1CCC[C@H]1C(=O)N[C@@H](CCCNC(=N)N)C(=O)N[C@H](C(=O)N[C@@H](CCC(=O)O)C(=O)N[C@H](C(=O)NCC(=O)N[C@@H](CO)C(=O)NCC(=O)N[C@@H](CO)C(=O)N1CCC[C@H]1C(N)=O)[C@@H](C)O)[C@@H](C)O)[C@@H](C)O
B4: [N-terminal(C20 diacid-gGlu), 1A, 23Y, 30S, 31G]mimylin (peptide)
peptide: {C20 diacid-γGlu}-AASELSTAALGRLSAELHELATYPRTETGSGSP-NH2
SMILES: CC(C)C[C@H](NC(=O)[C@H](C)NC(=O)[C@H](C)NC(=O)[C@@H](NC(=O)[C@H](CO)NC(=O)[C@H](CC(C)C)NC(=O)[C@H](CCC(=O)O)NC(=O)[C@H](CO)NC(=O)[C@H](C)NC(=O)[C@H](C)NC(=O)CC[C@H](NC(=O)CCCCCCCCCCCCCCCCCCC(=O)O)C(=O)O)[C@@H](C)O)C(=O)NCC(=O)N[C@@H](CCCNC(=N)N)C(=O)N[C@@H](CC(C)C)C(=O)N[C@@H](CO)C(=O)N[C@@H](C)C(=O)N[C@@H](CCC(=O)O)C(=O)N[C@@H](CC(C)C)C(=O)N[C@@H](Cc1c[nH]cn1)C(=O)N[C@@H](CCC(=O)O)C(=O)N[C@@H](CC(C)C)C(=O)N[C@@H](C)C(=O)N[C@H](C(=O)N[C@@H](Cc1ccc(O)cc1)C(=O)N1CCC[C@H]1C(=O)N[C@@H](CCCNC(=N)N)C(=O)N[C@H](C(=O)N[C@@H](CCC(=O)O)C(=O)N[C@H](C(=O)NCC(=O)N[C@@H](CO)C(=O)NCC(=O)N[C@@H](CO)C(=O)N1CCC[C@H]1C(N)=O)[C@@H](C)O)[C@@H](C)O)[C@@H](C)O
B5: [N-terminal(C20 diacid-gGlu), des1, 30S, 31G, 33H]mimylin (peptide)
peptide: {C20 diacid-γGlu}-ASELSTAALGRLSAELHELATLPRTETGSGSH-NH2
SMILES: CC(C)C[C@H](NC(=O)[C@H](C)NC(=O)[C@H](C)NC(=O)[C@@H](NC(=O)[C@H](CO)NC(=O)[C@H](CC(C)C)NC(=O)[C@H](CCC(=O)O)NC(=O)[C@H](CO)NC(=O)[C@H](C)NC(=O)CC[C@H](NC(=O)CCCCCCCCCCCCCCCCCCC(=O)O)C(=O)O)[C@@H](C)O)C(=O)NCC(=O)N[C@@H](CCCNC(=N)N)C(=O)N[C@@H](CC(C)C)C(=O)N[C@@H](CO)C(=O)N[C@@H](C)C(=O)N[C@@H](CCC(=O)O)C(=O)N[C@@H](CC(C)C)C(=O)N[C@@H](Cc1c[nH]cn1)C(=O)N[C@@H](CCC(=O)O)C(=O)N[C@@H](CC(C)C)C(=O)N[C@@H](C)C(=O)N[C@H](C(=O)N[C@@H](CC(C)C)C(=O)N1CCC[C@H]1C(=O)N[C@@H](CCCNC(=N)N)C(=O)N[C@H](C(=O)N[C@@H](CCC(=O)O)C(=O)N[C@H](C(=O)NCC(=O)N[C@@H](CO)C(=O)NCC(=O)N[C@@H](CO)C(=O)N[C@@H](Cc1c[nH]cn1)C(N)=O)[C@@H](C)O)[C@@H](C)O)[C@@H](C)O
B6: [N-terminal(C20 diacid-gGlu), des1, 4G, 8L, 9V, 15Q, 21Q, 23Y, 30S, 31Q, 32T, 33Y]mimylin (peptide)
peptide: {C20 diacid-γGlu}-ASGLSTLVLGRLSQELHELQTYPRTETGSQTY-NH2
SMILES: CC(C)C[C@H](NC(=O)CNC(=O)[C@H](CO)NC(=O)[C@H](C)NC(=O)CC[C@H](NC(=O)CCCCCCCCCCCCCCCCCCC(=O)O)C(=O)O)C(=O)N[C@@H](CO)C(=O)N[C@H](C(=O)N[C@@H](CC(C)C)C(=O)N[C@H](C(=O)N[C@@H](CC(C)C)C(=O)NCC(=O)N[C@@H](CCCNC(=N)N)C(=O)N[C@@H](CC(C)C)C(=O)N[C@@H](CO)C(=O)N[C@@H](CCC(N)=O)C(=O)N[C@@H](CCC(=O)O)C(=O)N[C@@H](CC(C)C)C(=O)N[C@@H](Cc1c[nH]cn1)C(=O)N[C@@H](CCC(=O)O)C(=O)N[C@@H](CC(C)C)C(=O)N[C@@H](CCC(N)=O)C(=O)N[C@H](C(=O)N[C@@H](Cc1ccc(O)cc1)C(=O)N1CCC[C@H]1C(=O)N[C@@H](CCCNC(=N)N)C(=O)N[C@H](C(=O)N[C@@H](CCC(=O)O)C(=O)N[C@H](C(=O)NCC(=O)N[C@@H](CO)C(=O)N[C@@H](CCC(N)=O)C(=O)N[C@H](C(=O)N[C@@H](Cc1ccc(O)cc1)C(N)=O)[C@@H](C)O)[C@@H](C)O)[C@@H](C)O)[C@@H](C)O)C(C)C)[C@@H](C)O
B7: [N-terminal(C20 diacid-gGlu), des1, 4G, 9T, 15Q, 21Q, 23Y, 25P, 30S, 31G, 32T, 33Y]mimylin (peptide)
peptide: {C20 diacid-γGlu}-ASGLSTATLGRLSQELHELQTYPPTETGSGTY-NH2
SMILES: CC(C)C[C@H](NC(=O)CNC(=O)[C@H](CO)NC(=O)[C@H](C)NC(=O)CC[C@H](NC(=O)CCCCCCCCCCCCCCCCCCC(=O)O)C(=O)O)C(=O)N[C@@H](CO)C(=O)N[C@H](C(=O)N[C@@H](C)C(=O)N[C@H](C(=O)N[C@@H](CC(C)C)C(=O)NCC(=O)N[C@@H](CCCNC(=N)N)C(=O)N[C@@H](CC(C)C)C(=O)N[C@@H](CO)C(=O)N[C@@H](CCC(N)=O)C(=O)N[C@@H](CCC(=O)O)C(=O)N[C@@H](CC(C)C)C(=O)N[C@@H](Cc1c[nH]cn1)C(=O)N[C@@H](CCC(=O)O)C(=O)N[C@@H](CC(C)C)C(=O)N[C@@H](CCC(N)=O)C(=O)N[C@H](C(=O)N[C@@H](Cc1ccc(O)cc1)C(=O)N1CCC[C@H]1C(=O)N1CCC[C@H]1C(=O)N[C@H](C(=O)N[C@@H](CCC(=O)O)C(=O)N[C@H](C(=O)NCC(=O)N[C@@H](CO)C(=O)NCC(=O)N[C@H](C(=O)N[C@@H](Cc1ccc(O)cc1)C(N)=O)[C@@H](C)O)[C@@H](C)O)[C@@H](C)O)[C@@H](C)O)[C@@H](C)O)[C@@H](C)O

The binders below were run against T1, human amylin receptor (human calcitonin receptor + human RAMP3) (human) (assay: whole-cell competition vs 125I-rat amylin (Assay Va)).

IC50 [nM]	Binder
0.142	B1
3.7	B2
2.61	B3
1.23	B4
1.07	B5
1.48	B6
0.697	{C20 diacid-γGlu}-ASELSTAALGHLSAELHELATLPRTETGSGSP-NH2 [[N-terminal(C20 diacid-gGlu), des1, 12H, 30S, 31G]mimylin]
0.116	B7

What follows are binders tested against rat calcitonin receptor (rat) (UniProt P32214) (assay: SPA competition vs 125I-calcitonin, membranes with rat CTR (Assay VIII)).

IC50 [nM]	Binder
0.031	B1
0.069	B2
0.202	B3
0.044	B4
0.02	B5
0.031	B6
0.085	{C20 diacid-γGlu}-ASELSTAALGHLSAELHELATLPRTETGSGSP-NH2 [[N-terminal(C20 diacid-gGlu), des1, 12H, 30S, 31G]mimylin]
0.028	B7

The binders below were run against rat amylin receptor (rat calcitonin receptor with rat RAMP 3) (rat) (UniProt P32214) (assay: SPA competition vs 125I-rat amylin, membranes with rat CTR + rat RAMP3 (Assay VI)).

IC50 [nM]	Binder
0.026	B1
1.16	B2
3.99	B3
0.025	B4
0.046	B5
0.091	B6
1.53	{C20 diacid-γGlu}-ASELSTAALGHLSAELHELATLPRTETGSGSP-NH2 [[N-terminal(C20 diacid-gGlu), des1, 12H, 30S, 31G]mimylin]
0.098	B7
